From the supplement of paper PMC10724198
± gives the standard deviation of the averaged measurements.
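Note: PSI is a weighted mean of sequencing reads over stability bins, variants kept only with over 10 reads, mCherry proximal and sfGFP distal, peptide attached via GGGS linker.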

The sequences below were run on Saccharomyces cerevisiae (assay: protein stability index of tFT-peptide fusion (C-terminal peptide) (PSI (0-1 scale)); higher = more stable (slower turnover)). Settings: genetic background: wild type; temperature: 30 C.
Description: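 Multiplexed protein stability (MPS) profiling in S. cerevisiae. Random 12-aa peptides (tFT-X12 library) are fused to the C-terminus of a sfGFP-mCherry tandem fluorescent timer, after mCherry and a GGGS linker. Cells are FACS-sorted into 8 mCherry/sfGFP bins and deep-sequenced. The protein stability index (PSI) is the read-weighted bin average, scaled from 0 (unstable) to 1 (stable). Only peptides with >10 reads are reported; cells were grown at 30 °C in SC-His with glucose.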
With KSILTRTVNSNQ the protein stability index was 0.6592 ± 0.0031.
Sequence IRRTSENEEETW has a protein stability index of 0.673 ± 0.043.
IFWLFLPSVPFL gave a protein stability index of 0.702 ± 0.12.
With NRHQVSKTEIKL the protein stability index was 0.72 ± 0.016.
SPPPHPVHPVPL showed a protein stability index of 0.611 ± 0.019.
YLVSRRSGCDLE gave a protein stability index of 0.683 ± 0.051.
AFCPLLLRGTAP gave a protein stability index of 0.697 ± 0.045.
In the case of PPPPPPPAPPPC, the protein stability index is reported as 0.7243 ± 0.0033.
For VLTVVRVGVGKQ, the protein stability index was 0.676 ± 0.051.
For PPRGDPRAYLPP, the protein stability index was 0.654 ± 0.011.
VGGEGSAGLQCR gave a protein stability index of 0.6956 ± 0.0037.
Work on GGGECLWNKQAV yielded a protein stability index of 0.687 ± 0.024.
Sequence KEKKLKIIQKGT has a protein stability index of 0.578 ± 0.09.
LPSTLLLPLASP showed a protein stability index of 0.712 ± 0.018.
ACTPHLPLPAPQ gave a protein stability index of 0.706 ± 0.016.
YVSHLLMVGRFI was tested, and the protein stability index was 0.616 ± 0.01.
Work on SDMCLGRVFCFL yielded a protein stability index of 0.63 ± 0.069.
Sequence QVSLLVKKSKLR has a protein stability index of 0.679 ± 0.049.
Work on LSALGGVLWWWC yielded a protein stability index of 0.616 ± 0.026.
For GGVGRAALRWYG, the protein stability index was 0.68 ± 0.03.
In the case of SGLRQGRHVYPA, the protein stability index is reported as 0.682 ± 0.011.
In the case of KNAAGERGGKEG, the protein stability index is reported as 0.644 ± 0.044.
Work on LPPGSTPDSPTL yielded a protein stability index of 0.706 ± 0.028.
VKRPGVGRSSTA showed a protein stability index of 0.731 ± 0.051.
Sequence EVFVVHLLGEAS has a protein stability index of 0.574 ± 0.064.
In the case of HSSALFSSRLRF, the protein stability index is reported as 0.7223 ± 0.0036.
For HLPPPPSPPPPP, the protein stability index was 0.68 ± 0.051.
PPPPTPLPPPHD was tested, and the protein stability index was 0.652 ± 0.037.
With ILGGVSPSAFVI the protein stability index was 0.664 ± 0.022.
For TTFHLCLFQKSS, the protein stability index was 0.584 ± 0.0071.
TILAGSSRGTLR gave a protein stability index of 0.659 ± 0.061.
With PWFIGGSLGESG the protein stability index was 0.699 ± 0.027.
In the case of HMQCVFRSTHHR, the protein stability index is reported as 0.585 ± 0.054.
With NPAVASPPPSSS the protein stability index was 0.737 ± 0.036.
VYSLQSFSVRRY was tested, and the protein stability index was 0.704 ± 0.018.
Work on VLVRYSAGTGGT yielded a protein stability index of 0.605 ± 0.013.
Sequence NSWGRRAGMRGG has a protein stability index of 0.731 ± 0.1.
ITSITRFKVDSR was tested, and the protein stability index was 0.628 ± 0.022.
GSSPIDGLEVYG showed a protein stability index of 0.654 ± 0.041.
Sequence RGGPPPPPSITL has a protein stability index of 0.851 ± 0.12.
GWQCGVNRGGWW was tested, and the protein stability index was 0.752 ± 0.057.
DLPRLLLSPSLP was tested, and the protein stability index was 0.67 ± 0.058.
In the case of LLPPPPPPPFSD, the protein stability index is reported as 0.653 ± 0.079.
In the case of SVSLVQRSVCLD, the protein stability index is reported as 0.71 ± 0.021.
For NHLANHAGCQKT, the protein stability index was 0.667 ± 0.028.
YSPAYDHLRPDH showed a protein stability index of 0.7034 ± 0.0069.
For FGSRTFVTIAAG, the protein stability index was 0.57 ± 0.056.
Sequence KKSRLRNNPADC has a protein stability index of 0.7 ± 0.031.
CEHRTPLMFKRG was tested, and the protein stability index was 0.686 ± 0.048.
For LRKSSIQRQKKR, the protein stability index was 0.653 ± 0.034.
In the case of GPVTDWPLLLFK, the protein stability index is reported as 0.5901 ± 0.0015.
LSPPLPARPAAS showed a protein stability index of 0.687 ± 0.034.
In the case of LQFSTSMGVLMV, the protein stability index is reported as 0.591 ± 0.01.
With GAPRYRLQRPVP the protein stability index was 0.672 ± 0.029.
For RPIQPATLAYSP, the protein stability index was 0.682 ± 0.037.
GATDMVTSGEWV was tested, and the protein stability index was 0.757 ± 0.021.
Work on RVSWGSTRLSRA yielded a protein stability index of 0.6427 ± 0.0064.
FGRGLCPHRLWI was tested, and the protein stability index was 0.74 ± 0.039.
ASVRPCSCSGRQ showed a protein stability index of 0.715 ± 0.069.
LLGRRSHTPDEP was tested, and the protein stability index was 0.723 ± 0.013.
In the case of SRSSRINLMRRW, the protein stability index is reported as 0.674 ± 0.021.
For PRASDPPPSPYP, the protein stability index was 0.766 ± 0.057.
HPLLTPTPHKPD gave a protein stability index of 0.699 ± 0.11.
DVELTGCCLSRT showed a protein stability index of 0.696 ± 0.026.
HPPPLVPSPSTQ was tested, and the protein stability index was 0.749 ± 0.067.
With LSLSPLPAPCPP the protein stability index was 0.713 ± 0.071.
For RGAEACGGVPGQ, the protein stability index was 0.671 ± 0.024.
Sequence RGRSVEGSRGGW has a protein stability index of 0.6781 ± 0.0048.
Work on SPPPPRLPSHPS yielded a protein stability index of 0.613 ± 0.14.
For NHVAPNSPSPQD, the protein stability index was 0.731 ± 0.027.
PPPPPPLSRTST was tested, and the protein stability index was 0.723 ± 0.082.
With PPRASPRMPAGC the protein stability index was 0.71506 ± 3.7e-05.
Sequence RTWGGKKHKKRK has a protein stability index of 0.716 ± 0.014.
With RFFYGGRRTQQT the protein stability index was 0.753 ± 0.058.
For PLSTHNSLPRVK, the protein stability index was 0.691 ± 0.061.
In the case of AGSHPSRLGIFS, the protein stability index is reported as 0.733 ± 0.033.
PSIPSNPPTPPR showed a protein stability index of 0.72 ± 0.033.
Sequence WGDGRGRVWEIS has a protein stability index of 0.674 ± 0.048.
Sequence SPPCPPPLAPPP has a protein stability index of 0.758 ± 0.044.
In the case of PPSPLYAFPYPL, the protein stability index is reported as 0.757 ± 0.0099.
Work on TNTQRYRKTRST yielded a protein stability index of 0.721 ± 0.054.
